Laboratory results: US20240270845A1 (ZELARION MALTA, published 2024)

Target: T1, Recombinant truncated human CD2 (human, UniProt P06729 25-209, limits assumed)
T1 construct: Bought; also called LFA2
T1 sequence (looked up): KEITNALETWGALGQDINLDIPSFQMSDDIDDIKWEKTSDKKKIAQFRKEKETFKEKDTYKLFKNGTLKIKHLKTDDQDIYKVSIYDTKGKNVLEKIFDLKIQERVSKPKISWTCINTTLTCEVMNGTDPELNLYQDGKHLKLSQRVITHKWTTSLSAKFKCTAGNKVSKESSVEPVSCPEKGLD
Test: SPR (Biacore T200), IgG amine-coupled to CM5 chip, CD2 injected up to 5 nM, two-state model, 25 °C
Experimental: All interaction experiments were performed at 25° C. Recombinant truncated human CD2 (Sino Biological, Beijing, China) was diluted in two-fold dilution series with the highest concentration being 5 nM and injected for 180 seconds over immobilized IgG. After 15 minutes of dissociation, the sensor chip was regenerated by 30 seconds injection of 10 mM glycine pH 1.7. Sensorgrams from reference surfaces and blank injections were subtracted from the raw data prior to data analysis. A two-state (induced fit) interaction model was fitted to the data using T200 evaluation software v3.0 (Cytiva Life Sciences/Biacore, Uppsala, Sweden) to determine kinetic rate constants and affinities.

B1: Siplizumab (humanized anti-CD2 IgG1κ) (antibody, V domains shown)
VH: QVQLVQSGAEVQRPGASVKVSCKASGYIFTEYYMYWVRQAPGQGLELVGRIDPEDGSIDYVEKFKKKVTLTADTSSSTAYMELSSLTSDDTAVYYCARGKFNYRFAYWGQGTLVTVSS
VL: DVVMTQSPPSLLVTLGQPASISCRSSQSLLHSSGNTYLNWLLQRPGQSPQPLIYLVSKLESGVPDRFSGSGSGTDFTLKISGVEAEDVGVYYCMQFTHYPYTFGQGTKLEIK
notes: also called MEDI-507; anti-CD2 Ab1
Kd: 1.2 nM

B2: CD2-binding molecule 4 (FcS anti-CD2 IgG4) (antibody, V domains shown)
VH: B1 VH
VL: B1 VL
notes: Standard IgG4 framework with S228P, L235E, P329G; made in CHO-K1 cells
Kd: 1.4 nM

B3: CD2-binding molecule 1 (a deglycosylated CD2-binding molecule) (antibody, V domains shown)
VH: B1 VH
VL: B1 VL
modifications: Fc N-glycan removed with EndoS2 (GlycINATOR)
notes: produced with GlycINATOR (EndoS2)
Kd: 1.2 nM

B4: CD2-binding molecule 2 (Fc-silent (FcS) anti-CD2 IgG1) (antibody, V domains shown)
VH: B1 VH
VL: B1 VL
notes: IgG1 with LALA-PG mutations at equivalent sites in siplizumab; made in CHO-K1 cells; also called Fc-silent Siplizumab
Kd: 1.5 nM

B5: CD2-binding molecule 3 (FcS anti-CD2 IgG2) (antibody, V domains shown)
VH: B1 VH
VL: B1 VL
notes: Standard IgG2 framework with V234A, G237A, P238S, H268A, V309L, A330S, P331S; made in CHO-K1 cells
Kd: 0.9 nM
